± gives the uncertainty stated by the source.
Assay: amyloid nucleation score (Sup35N fusion, yeast selection) (log enrichment); library NNK3; higher = more nucleation; inactive = no reads after selection
Outline: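 The nucleation score is a DiMSum log enrichment of output over input reads, centred on the mode score of non-aggregating sequences. Sequences under 100 input reads were excluded, and reads came from Illumina sequencing of plasmid inserts. Psi-negative yeast expressing Sup35N fused to peptides of 20 random codons were induced with 100 μM copper sulfate for 24 hours and grown 7 days at 30°C on medium lacking adenine and uracil. Random libraries had three technical output replicates.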

| Substance | amyloid nucleation score |
| --- | --- |
| FDRKYW | inactive |
| FDRYYVSPLRVLHQVGCEIL | inactive |
| FDSYRVYM | inactive |
| FDVVWL | inactive |
| FDWIQDHSQCGIIFTCVKLG | inactive |
| FEHPHGGVNS | inactive |
| FEIYECQLAC | inactive |
| FELPSVKGGCILPSQILP | -0.517 ± 0.73 |
| FESLHSCV | inactive |
| FFARSHAVIINFFCTH | 2.72 ± 0.066 |
| FFCNLSSILRWGN | 0.572 ± 0.18 |
| FFDTTYLLNSGMNVVLDAYF | 1.76 ± 0.097 |
| FFFFTLKTSVQADLHDMLSQ | 0.792 ± 0.16 |
| FFFLNSWVFYVLMNNDIVCA | inactive |
| FFFLWGAP | inactive |
| FFFTSKSLGPVTLTLISVSD | inactive |
| FFIDQLKEFSHY | inactive |
| FFIDYIHTYRYESSASMS | inactive |
| FFKSLRV | inactive |
| FFKVSPMYY | inactive |
| FFLIEQFYTYWMGGIMMIQR | inactive |
| FFLTLGYVVGYQRWSYILWR | inactive |
| FFNVMVS | inactive |
| FFQDQFVDWLDYTVLRI | inactive |

| Substance | amyloid nucleation score |
| --- | --- |
| FFREYTSSRQMNICYLSFHG | inactive |
| FFRQQKYSVCLFGGTFIWVV | inactive |
| FFSDTYSNTSPM | inactive |
| FFSSDDMWRYWMFSYSDNSI | inactive |
| FFSSFPFKIIEMLSFEGSFR | inactive |
| FFVKYVLEKCAWKY | inactive |
| FGFCCKAPCVGSLWVPSVVT | inactive |
| FGHIGQRRSFVIHLMHDGSP | inactive |
| FGILSDIVCSTVVKNCDL | inactive |
| FGIWCTIPWLLFRYSVDMFM | inactive |
| FGMPCFSSEYLLTCMVVLTG | inactive |
| FGMSQKSSRGWGLNV | inactive |
| FGRQVSDGVASFMSNTSLYR | inactive |
| FGTEDK | inactive |
| FGTVAWPITFIIRMAVGSSC | 0.936 ± 0.15 |
| FGVGMALALCQRH | inactive |
| FGVIRHERMEMWRHRSNRCV | inactive |
| FGVTTEF | 1.23 ± 0.14 |
| FGWLTPDMKFLCTYKQRISG | inactive |
| FHDVMKGGI | inactive |
| FHSSFSVYCPFNSMLASV | 0.005 ± 0.58 |
| FHSSS | inactive |
| FHVTVFWNRHNSDLMVLHR | inactive |
| FHYCCYITAAQYYDACCVVP | inactive |

| Substance | amyloid nucleation score |
| --- | --- |
| FHYRENVNREHSPFWSREMV | inactive |
| FICVAIGTFCFIEMMHLIGR | 1.23 ± 0.086 |
| FIGDGSRDRRDGLLDLY | inactive |
| FIGFSAWWNGMDNVRVLASS | -0.269 ± 0.73 |
| FIIWAMDWVFASRL | inactive |
| FIKLKGL | inactive |
| FIKYFANLRKFCDILSCSL | 1.27 ± 0.14 |
| FILGWCGIYSTACPNTSTGT | inactive |
| FILSVCYARRDLTLKRTPSR | inactive |
| FIPPSLCIITS | inactive |
| FIQYEHNLPGTARGKCIQC | inactive |
| FISSSSTRILQYGRYTVEIN | inactive |
| FIWVFCD | inactive |
| FKCTVIGDTILPNTFSLWRF | inactive |
| FKDFIIICLAKLFGIFYDTD | inactive |
| FKDVSVPIR | inactive |
| FKKCVDLKHYNVSMDVRCVL | inactive |
| FKLRTDIAMDINVGQDLSGL | inactive |
| FKLSMLA | inactive |
| FKPTRSHQGSFSSVTMFLVG | 0.261 ± 0.29 |
| FKYYRSYYPYICLKSVI | inactive |
| FLALDQISFVIRCLNI | inactive |
| FLANGSDWIFLWFRIHVDHF | inactive |
| FLAYGWWHYKWSGNDTLHSF | inactive |

| Substance | amyloid nucleation score |
| --- | --- |
| FLCSTVIISNVLMRPAYYVR | inactive |
| FLCVRSFRFVCVLFFNDIT | inactive |
| FLDDLTLVHGRSETKKNL | inactive |
| FLDIRMMIRRLTGGPESVSL | inactive |
| FLGDYRILSLLFYI | 2.49 ± 0.053 |
| FLGSLVSLRCKWFVAF | 0.292 ± 0.75 |
| FLILSNEIMPLFTWANKRLE | inactive |
| FLKYTITHLCSRPRIYLGIS | 0.16 ± 0.22 |
| FLLIILTLYASTCRAQYAFR | 1.42 ± 0.15 |
| FLMNHVLQNW | inactive |
| FLNFSGLPGFVCPVIPSHYV | inactive |
| FLNSCQNMQVPSGKFNSSKV | -0.122 ± 0.82 |
| FLPPKMVLFPVSEWSLDLRY | inactive |
| FLPPTVINVVHAYRRFSSDR | 1.71 ± 0.098 |
| FLSCNTCWGMTNANLSDNFN | 2.05 ± 0.071 |
| FLSPSGVD | inactive |
| FLTDASWGSIFWKFLRASFV | 0.621 ± 0.14 |
| FLTRIHFLCTCVRRNG | 1.37 ± 0.1 |
| FLVIPWDEEKCRLSDLFASN | inactive |
| FLVNPVCSMVSSYCSFPSPK | 2.52 ± 0.062 |
| FLYSVL | inactive |
| FMFASQLMRFFHSWTVSRSS | inactive |
| FMFVVWGYINGFGYLTGVN | inactive |
| FMGLGLQLRLIHLSRG | inactive |

| Substance | amyloid nucleation score |
| --- | --- |
| FMLGDAVFRFFVRNGGRIDN | inactive |
| FMMFIL | 1.42 ± 0.1 |
| FMSSSPDSYCEKGKRQ | inactive |
| FMTWHFENCCWCRHSRFGLL | inactive |
| FMVGR | inactive |
| FNAGYWGMSSKVSNESRWVY | inactive |
| FNCGPCIVLEWYFTSVAGQG | 2.1 ± 0.071 |
| FNDVLMAVITLSVIDTLMWT | inactive |
| FNFLVMILGITLPNNITFEH | 0.279 ± 0.17 |
| FNIMVYCNESSL | inactive |
| FNKGYV | inactive |
| FNKLVWNHLSGCV | inactive |
| FNLNESSGYVKFYLNGNRPL | inactive |
| FNRKCVSVCRVRGGICWRSQ | inactive |
| FNSFCAYNTRHYYVVLGGIV | 1.04 ± 0.13 |
| FNSRNSVVTDLRYWSIRGLV | inactive |
| FNVRWGWLGDLIYGGFLHVG | inactive |
| FNWFCLFLWMRNRSKPFWTM | inactive |
| FNWLGLGLMLGIDRDRCDNV | inactive |
| FNWRLSSITDSSVYLPSWNL | inactive |
| FNWTN | inactive |
| FPHRMLRPCYESDTFPPWTG | inactive |

From the supplement of paper PMC12042874
